Test results as given in patent publication US20250313620A1.

Tests used:
[1] = target: PD-1 on in vitro activated primary human T cells (human) (UniProt Q15116); assay: flow cytometry, PD-1 staining of activated T cells, media only
[2] = target: PD-1 on in vitro activated primary human T cells (human) (UniProt Q15116); assay: flow cytometry, PD-1 staining of activated T cells treated with RV1 precomplexed with IL-15, 1 nM
[3] = target: PD-1 on in vitro activated primary human T cells (human) (UniProt Q15116); assay: flow cytometry, PD-1 staining of activated T cells treated with RV2 precomplexed with IL-15, 10 nM
[4] = target: PD-1 on in vitro activated primary human T cells (human) (UniProt Q15116); assay: flow cytometry, PD-1 staining of activated T cells treated with IL-15Rα-Fc precomplexed with IL-15, 10 nM
[5] = target: PD-1 on in vitro activated primary human T cells (human) (UniProt Q15116); assay: flow cytometry, PD-1 staining of activated T cells treated with IL-15 10 nM
[6] = target: PD-1 on in vitro activated primary human T cells (human) (UniProt Q15116); assay: flow cytometry, PD-1 staining of activated T cells treated with RV2 precomplexed with IL-15, 100 nM
[7] = target: PD-1 on in vitro activated primary human T cells (human) (UniProt Q15116); assay: flow cytometry, PD-1 staining of activated T cells treated with RV2 precomplexed with IL-15, 1 nM
[8] = target: PD-1 on in vitro activated primary human T cells (human) (UniProt Q15116); assay: flow cytometry, PD-1 staining of activated T cells treated with RV1 precomplexed with IL-15, 10 nM
[9] = target: PD-1 on in vitro activated primary human T cells (human) (UniProt Q15116); assay: flow cytometry, PD-1 staining of activated T cells treated with IL-15Rα-Fc precomplexed with IL-15, 100 nM
[10] = target: PD-1 on in vitro activated primary human T cells (human) (UniProt Q15116); assay: flow cytometry, PD-1 staining of activated T cells treated with IL-15 1 nM
[11] = target: PD-1 on in vitro activated primary human T cells (human) (UniProt Q15116); assay: flow cytometry, PD-1 staining of Ki-67 positive activated T cells, average over the non-PD-1-binding treatments
[12] = target: PD-1 on in vitro activated primary human T cells (human) (UniProt Q15116); assay: flow cytometry, PD-1 staining of activated T cells treated with RV1 precomplexed with IL-15, 100 nM
[13] = target: PD-1 on in vitro activated primary human T cells (human) (UniProt Q15116); assay: flow cytometry, PD-1 staining of activated T cells treated with IL-15Rα-Fc precomplexed with IL-15, 1 nM
[14] = target: PD-1 on in vitro activated primary human T cells (human) (UniProt Q15116); assay: flow cytometry, PD-1 staining of activated T cells treated with IL-15 100 nM

Chain of PD-1 on in vitro activated primary human T cells (human) (Q15116 25-288): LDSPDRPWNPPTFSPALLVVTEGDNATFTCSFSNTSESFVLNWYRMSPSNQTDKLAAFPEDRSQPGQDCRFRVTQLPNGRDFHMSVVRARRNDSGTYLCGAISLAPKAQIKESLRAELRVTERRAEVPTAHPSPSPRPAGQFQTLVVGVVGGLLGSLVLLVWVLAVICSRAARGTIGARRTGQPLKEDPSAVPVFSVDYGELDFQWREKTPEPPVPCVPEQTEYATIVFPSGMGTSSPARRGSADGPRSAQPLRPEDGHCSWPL

B1: PD-1 detection antibody (clone EH12.2H7) (antibody, from another filing, V domains shown)
VH: QVQLQQSGAELAKPGASVQMSCKASGYSFTSSWIHWVKQRPGQGLEWIGYIYPSTGFTEYNQKFKDKATLTADKSSSTAYMQLSSLTSEDSAVYYCARWRDSSGYHAMDYWGQGTSVTVSS
VL: DIVLTQSPASLTVSLGQRATISCRASQSVSTSGYSYMHWYQQKPGQPPKLLIKFGSNLESGIPARFSGSGSGTDFTLNIHPVEEEDTATYYCQHSWEIPYTFGGGTKLEIK
**Q.** Which results are given for B1?
**A.** MFI of PD-1 in Ki-67 positive CD4+ T cells [1]: 4020 MFI; MFI of PD-1 in Ki-67 positive CD8+ T cells [1]: 2250 MFI; MFI of PD-1 in Ki-67 positive CD4+ T cells [2]: 4100 MFI; MFI of PD-1 in Ki-67 positive CD8+ T cells [2]: 1870 MFI; MFI of PD-1 in Ki-67 positive CD4+ T cells [3]: 5070 MFI; MFI of PD-1 in Ki-67 positive CD8+ T cells [3]: 2020 MFI; MFI of PD-1 in Ki-67 positive CD4+ T cells [4]: 4480 MFI; MFI of PD-1 in Ki-67 positive CD8+ T cells [4]: 2120 MFI; MFI of PD-1 in Ki-67 positive CD4+ T cells [5]: 6440 MFI; MFI of PD-1 in Ki-67 positive CD8+ T cells [5]: 3190 MFI; MFI of PD-1 in Ki-67 positive CD4+ T cells [6]: 5840 MFI; MFI of PD-1 in Ki-67 positive CD8+ T cells [6]: 2820 MFI; MFI of PD-1 in Ki-67 positive CD4+ T cells [7]: 4200 MFI; MFI of PD-1 in Ki-67 positive CD8+ T cells [7]: 1920 MFI; MFI of PD-1 in Ki-67 positive CD4+ T cells [8]: 4620 MFI; MFI of PD-1 in Ki-67 positive CD8+ T cells [8]: 1890 MFI; MFI of PD-1 in Ki-67 positive CD4+ T cells [9]: 4380 MFI; MFI of PD-1 in Ki-67 positive CD8+ T cells [9]: 2110 MFI; MFI of PD-1 in Ki-67 positive CD4+ T cells [10]: 4870 MFI; MFI of PD-1 in Ki-67 positive CD8+ T cells [10]: 2050 MFI; MFI of PD-1 staining, average, CD4+ cells [11]: 4830 MFI; MFI of PD-1 staining, average, CD8+ cells [11]: 2190 MFI; MFI of PD-1 in Ki-67 positive CD4+ T cells [12]: 4830 MFI; MFI of PD-1 in Ki-67 positive CD8+ T cells [12]: 2370 MFI; MFI of PD-1 in Ki-67 positive CD4+ T cells [13]: 4280 MFI; MFI of PD-1 in Ki-67 positive CD8+ T cells [13]: 1690 MFI; MFI of PD-1 in Ki-67 positive CD4+ T cells [14]: 6550 MFI; MFI of PD-1 in Ki-67 positive CD8+ T cells [14]: 3220 MFI
